Assay results from publication PMC7956749, “Establishment of Novel Protein Interaction Assays between Sin3 and REST Using Surface Plasmon Resonance and Time-Resolved Fluorescence Energy Transfer” (International Journal of Molecular Sciences, 2021).
Entries after “also recorded” stand apart in the source; their conditions may differ. One block for each molecule: values may come before it. Where no end group is shown, it is not given here.

Experiments:
biotinylated REST [1] = test: TR-FRET PAH1-REST interaction (anti-GST/anti-FLAG-Eu3+ cryptate donor, SA-XL665 acceptor); assay type: binding; details: for TR-FRET signal: 665 nm normalized to 620 nm, PAH1 peptide and biotinylated REST 1 to 10,000 nM, n = 4; for dynamic range: TR-FRET 665/620 nm, 384-well, 20 µL, 50 mM Tris-HCl pH 7.6, with biotinylated REST; for S/B / S/N: n=4
From the text: Finally, in order to establish a high-throughput and high-dynamic-range assay mimicking the binding surface between PAH1 and REST, we tried to apply the TR-FRET method for monitoring the interaction as shown in Figure 3a. We chose Europium cryptate (Eu^3+)-conjugated antibodies against GST or FLAG as a donor and SA-conjugated XL665 (a phycobiliprotein pigment derived from red algae) as an acceptor, for TR-FRET. If GST-PAH1 or PAH1-FLAG binds biotinylated REST and then transfers Eu^3+’s energy to XL665, it results in a change of the wavelength from 620 nm (a […] fluorescence derived from Eu^3+ alone) to 665 nm (a long-lived fluorescence converted by FRET) (Figure 3a). […] We prepared a serial dilution of GST-PAH1 or PAH1-FLAG and biotinylated REST ranging from 1 to 10,000 nM (Figure 3b) and then determined the 665 nm fluorescence normalized to 620 nm. […] We also checked whether GST-PAH1-anti-GST-Eu^3+ or FLAG-PAH1-anti-FLAG-Eu^3+ complexes caused any FRET with XL665 (Supplementary Figure S1e), and could not observe any change in wells with these alone. We assigned thresholds for high-throughput and high-standard assay as signal-to-background ratio (S/B) and Z’ factors of more than 5 and 0.8, respectively. We narrowed down optimal conditions to GST-PAH1 at 10, 100, 1000 or 10,000 nM in the presence of biotinylated REST at 1000 or 10,000 nM and that PAH1-FLAG and biotinylated REST at 10,000 nM. The S/B, signal-to-noise ratio (S/N), Z’ factor and coefficient of variation (CV) are shown in the Supplementary Table S1. We also assigned stringent statistical significance and then identified similar results by the S/B and Z’ factor (Figure 3b). To exclude the possibility that Eu^3+ antibodies directly bound XL665 causing FRET, we also determined the fluorescence level in wells including anti-GST-Eu^3+ or anti-FLAG-Eu^3+ and XL665. […] The results were 772 ± 9.1 and 436 ± 9.1 665/620 nm, respectively (n = 6). Although we observed very good dynamic range data at 1 h after preparing reaction mixtures, we obtained similar high-dynamic range data even at 18 h after that (data not shown). From 10 to 1000 nM in the concentration of biotinylated REST, 1000 or 10,000 nM GST-PAH1 induced maximal signals (Figure 3b, left, light blue and orange). The dynamic range of the assay was 31-fold, whereas only 10,000 nM PAH1-FLAG was required for the same amount of biotinylated REST to provide a maximal response and the dynamic range was 7-fold (Figure 3b, right, orange). We ultimately succeeded in establishing a high-standard assay, especially using GST-PAH1 and biotinylated REST.
TR-FRET reagents were prepared by diluting the anti-GST Eu3+ cryptate or anti-FLAG Eu3+ cryptate and SA-XL665 in 50 mM Tris-HCl (pH 7.6) buffer containing 15 mM NaCl, 140 mM KCl, 0.5 mM MgCl2, 0.1% BSA and 0.8 M KF with and without biotinylated REST and each PAH1 peptide. The reaction mix was 20 µL in 384-well format according to the manufacturer’s instructions. The fluoride ion avoids interference with fluorescence properties by protecting free coordination sites between conjugate “cage” and europium ions. One hour or more after preparation, we measured the intensities at 665 and 620 nm wavelength using PHERAstar FS (BMG biotech, Offenburg, Germany).
Values are expressed as the mean ± standard error of the mean (SEM) from indicated replicate samples in each experimental group and the experiments were replicated to ensure consistency. The statistical significance was determined using the Student’s t-test. Values marked as “*” were considered to be statistically significant if their p values were <0.00005. Signal-to-background ratio (S/B), signal-to-noise ratio (S/N) and Z’-factor were calculated by the formula described in our previous report. Additionally, the general criterion sufficient to perform HTS was validated in our previous report. […]

biotinylated REST [2] = test: SPR kinetics of PAH1 peptides on captured biotinylated REST (Biacore T200, SA chip); assay type: binding; details: for Ka (association rate) / Kd (dissociation rate): mean ± SEM, n = 3; for binding to biotinylated REST: SPR sensorgram, SA chip, 0.625 to 10 µM analyte
From the text: In order to validate a binding surface between Sin3B and REST, we utilized the structural information of PDB (2CZY) and designed longer peptides of binding surfaces with a tag and a protease recognition site as shown in Figure 1a. We asked the RIKEN Systems and Structural Biology Center (Yokohama, Japan) to generate recombinant peptides using E. coli. Finally, we obtained biotinylated REST, GST-PAH1 and PAH1-FLAG. In order to validate whether biotinylated REST binds two PAH1 peptides, we designed an SPR assay using a streptavidin (SA) sensor chip as shown in Figure 1b. Biotinylated REST should be bound as a ligand followed by the injection of PAH1 peptides as an analyte.
We chose the amino acid sequences of PAH1 and REST from information based on the crystal structure of a PAH1/REST complex (PDB: 2CZY). We then asked the scientists with the RIKEN institute to produce recombinant PAH1 and REST peptides. They generated recombinant peptides such as GST-PAH1, PAH1-FLAG and biotinylated REST using E. coli. We used these peptides in this study.
Values are expressed as the mean ± standard error of the mean (SEM) from indicated replicate samples in each experimental group and the experiments were replicated to ensure consistency. The statistical significance was determined using the Student’s t-test. Values marked as “*” were considered to be statistically significant if their p values were <0.00005. Signal-to-background ratio (S/B), signal-to-noise ratio (S/N) and Z’-factor were calculated by the formula described in our previous report. Additionally, the general criterion sufficient to perform HTS was validated in our previous report. In the SPR experiments, a statistical trend was considered to be statistically significant if its p-value was 1 > p > 0.05.

biotinylated REST [3] = test: SPR competitive binding, GST-PAH1 plus PAH1-FLAG on captured biotinylated REST
Method: In order to determine whether another PAH1 peptide, PAH1-FLAG, competitively binds biotinylated REST in the presence of GST-PAH1, we injected 10 µM GST-PAH1, 10 µM PAH1-FLAG or 5 µM GST-PAH1 and 5 µM PAH1-FLAG into the flow cell capturing biotinylated REST, all of which could change the sensorgram, even though their rates of association/dissociation were different (Figure 2c). […] As a result, the equal molarity of both PAH1 peptides changed the sensorgram-like intermediate form (Figure 2c). The association rate was faster than GST-PAH1, while the dissociation rate was slower than PAH1-FLAG.

[4] = target: T1, PAH1-FLAG (paired amphipathic helix 1 domain of Sin3B with a FLAG tag) (UniProt Q62141 31-107); test: SPR; brand-new sensor chip
T1 chain: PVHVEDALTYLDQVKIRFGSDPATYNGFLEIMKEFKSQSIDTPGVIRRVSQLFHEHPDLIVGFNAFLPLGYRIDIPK

[5] = target: T1, PAH1-FLAG (paired amphipathic helix 1 …); test: SPR; well-used sensor chip (about 100 regenerations)
[6] = target: T2, GST-tagged PAH1 (paired amphipathic helix 1 domain of Sin3B) (UniProt Q62141 31-107); test: SPR
T2 chain: T1 chain

[7] = TR-FRET, PAH1 10 nM, REST 1000 nM
[8] = TR-FRET, PAH1 10 nM, REST 10,000 nM
[9] = TR-FRET, PAH1 100 nM, REST 1000 nM
[10] = TR-FRET, PAH1 100 nM, REST 10,000 nM
[11] = TR-FRET, PAH1 1000 nM, REST 1000 nM
[12] = TR-FRET, PAH1 1000 nM, REST 10,000 nM
[13] = TR-FRET, PAH1 10,000 nM, REST 1000 nM
[14] = TR-FRET, PAH1 10,000 nM, REST 10,000 nM
[15] = SPR Biacore T200, SA chip with biotinylated REST, brand-new sensor chip, analyte 0.625 to 10 µM, 30 µL/min, association 60 s, dissociation 2 min
[16] = SPR, well-used sensor chip (after around 100 regenerations) with biotinylated REST

Kd (dissociation rate) (biotinylated REST [2]; [15]): 1.35 ± 0.82 × 10^−3 1/s
B1: GST-PAH1: recombinant glutathione S-transferase (GST)-tagged PAH1 peptide of Sin3B, produced in E. coli (protein)
chain: T1 chain
modifications: left off: GST, end not stated, kept | histidine-tag-like sequence, end not stated, state not stated
notes: recombinant glutathione S-transferase (GST)-tagged PAH1 peptide of Sin3B, produced in E. coli
TR-FRET signal (biotinylated REST [1]): substantial signals; also recorded: remarkably higher dynamic range and accuracy | dynamic range (biotinylated REST [1]): 31 fold | S/B (biotinylated REST [1]; [7]): 26.6 | S/N (biotinylated REST [1]; [7]): 469.9 | S/B (biotinylated REST [1]; [8]): 24.2 | S/N (biotinylated REST [1]; [8]): 1,114.3 | S/B (biotinylated REST [1]; [9]): 27.0 | S/N (biotinylated REST [1]; [9]): 478.7 | S/B (biotinylated REST [1]; [10]): 26.7 | S/N (biotinylated REST [1]; [10]): 1230.7 | S/B (biotinylated REST [1]; [11]): 29.2 | S/N (biotinylated REST [1]; [11]): 517.8 | S/B (biotinylated REST [1]; [12]): 31.1 | S/N (biotinylated REST [1]; [12]): 1441.0 | S/B (biotinylated REST [1]; [13]): 7.7 | S/N (biotinylated REST [1]; [13]): 123.9 | S/B (biotinylated REST [1]; [14]): 11.7 | S/N (biotinylated REST [1]; [14]): 515.1 | Ka (association rate) (biotinylated REST [2]; [15]): 2.38e+06 ± 6.7e+11 M⁻¹ s⁻¹ | association and dissociation with biotinylated REST (biotinylated REST [2]; SPR sensorgram after ligand capturing, GST-PAH1 10 µM): robust association and subsequent dissociation | binding to biotinylated REST (biotinylated REST [2]): bound biotinylated REST in a concentration-dependent manner | affinity/association compared with PAH1-FLAG (biotinylated REST [2]; SPR, statistical comparison GST-PAH1 vs PAH1-FLAG, Student's t-test): not significant but had a slower trend than PAH1-FLAG, resulting in a significantly increased affinity to REST; also recorded: significantly greater than that of PAH1-FLAG

rates of association and dissociation vs GST-PAH1 (biotinylated REST [3]; 10 µM each): far more quickly than in GST-PAH1 | Kd (dissociation rate) (biotinylated REST [2]; [15]): 3.83 ± 0.39 × 10^−3 1/s | Kd (dissociation rate) (biotinylated REST [2]; [16]): 3.59 ± 0.13 × 10^−3 1/s
B2: PAH1-FLAG: recombinant FLAG-tagged PAH1 peptide of Sin3B, produced in E. coli (protein)
chain: T1 chain
modifications: left off: FLAG, end not stated, kept | histidine-tag-like sequence, end not stated, state not stated
notes: recombinant FLAG-tagged PAH1 peptide of Sin3B, produced in E. coli
TR-FRET signal (biotinylated REST [1]): fewer signals only at high reagent concentrations | dynamic range (biotinylated REST [1]): 7 fold | S/N (biotinylated REST [1]; [14]): 165.3 | concentration inducing maximal signal (biotinylated REST [1]; TR-FRET, biotinylated REST 10 to 1000 nM): 10,000 nM | competitive binding to biotinylated REST (biotinylated REST [3]; 10 µM GST-PAH1, 10 µM PAH1-FLAG or 5 µM of each): shares the same binding surface as GST-PAH1 | Ka (association rate) (biotinylated REST [2]; [15]): 1.93 ± 0.17 × 10^3 Ms | binding to biotinylated REST (biotinylated REST [2]): bound biotinylated REST in a concentration-dependent manner | Ka (association rate) (biotinylated REST [2]; [16]): 2.31 ± 0.78 × 10^3 Ms | affinity on well-used vs brand new chip (biotinylated REST [2]; SPR, PAH1-FLAG, well-used vs brand-new chip with REST): not significantly different, but had a trend of lower affinity when compared to the brand new one

Kd [4]: 2030 nM | Kd [5]: 1690 nM | Kd [6]: 0.468 nM
Molecule: APQLIMLANVALTGE (also: biotin, site not given here) [biotinylated REST peptide (RE-1 silencing transcription factor, binding surface for Sin3B PAH1)]
